Test results published in patent US7312060.

Tests used:
[1] = test system: N- and C-terminally tagged MDM (cell-free expressed)
[2] = target: N- and C-terminally tagged APC protein (cell-free expressed, Example 45) (UniProt P25054)
[3] = test system: N- and C-terminally tagged PKA (cell-free expressed)

UniProt P25054, sequence (P25054 1098-1696): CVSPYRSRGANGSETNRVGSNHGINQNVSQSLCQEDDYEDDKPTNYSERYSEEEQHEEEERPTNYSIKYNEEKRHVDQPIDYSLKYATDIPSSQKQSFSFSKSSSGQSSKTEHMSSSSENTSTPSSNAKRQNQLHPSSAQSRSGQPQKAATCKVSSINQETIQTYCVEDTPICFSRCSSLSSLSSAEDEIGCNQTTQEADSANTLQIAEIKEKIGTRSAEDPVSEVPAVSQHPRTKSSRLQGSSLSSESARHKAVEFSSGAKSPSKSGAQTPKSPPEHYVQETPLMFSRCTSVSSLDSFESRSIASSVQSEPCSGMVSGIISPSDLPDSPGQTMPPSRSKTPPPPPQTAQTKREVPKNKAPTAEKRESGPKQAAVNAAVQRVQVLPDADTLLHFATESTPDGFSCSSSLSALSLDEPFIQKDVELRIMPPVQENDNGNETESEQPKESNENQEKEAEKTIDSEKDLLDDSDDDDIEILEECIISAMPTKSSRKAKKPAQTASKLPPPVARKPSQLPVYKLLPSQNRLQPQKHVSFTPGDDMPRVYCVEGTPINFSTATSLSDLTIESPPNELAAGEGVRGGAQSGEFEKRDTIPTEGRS

## Caspase-3
[1]
  protease substrate degradation monitored by ELISA: degraded ... in a time-dependent manner
[2]
  protease substrate degradation monitored by ELISA: degraded ... in a time-dependent manner
[3]
  protease substrate degradation monitored by ELISA: unaffected
